# Values of other authors in patent US20240269065A1, “Implantable Device for Release of Glucagon-Like Peptide-1 Receptor Agonist” (Celanese EVA Performance Polymers LLC, priority 2023, published 2024).
# Biological target: GLP-1 receptor (Homo sapiens, UniProt P43220)
# Settings: in vitro studies; compared with native GLP-1 and exenatide
# Chain of GLP-1 receptor (P43220 24-463, species assumed): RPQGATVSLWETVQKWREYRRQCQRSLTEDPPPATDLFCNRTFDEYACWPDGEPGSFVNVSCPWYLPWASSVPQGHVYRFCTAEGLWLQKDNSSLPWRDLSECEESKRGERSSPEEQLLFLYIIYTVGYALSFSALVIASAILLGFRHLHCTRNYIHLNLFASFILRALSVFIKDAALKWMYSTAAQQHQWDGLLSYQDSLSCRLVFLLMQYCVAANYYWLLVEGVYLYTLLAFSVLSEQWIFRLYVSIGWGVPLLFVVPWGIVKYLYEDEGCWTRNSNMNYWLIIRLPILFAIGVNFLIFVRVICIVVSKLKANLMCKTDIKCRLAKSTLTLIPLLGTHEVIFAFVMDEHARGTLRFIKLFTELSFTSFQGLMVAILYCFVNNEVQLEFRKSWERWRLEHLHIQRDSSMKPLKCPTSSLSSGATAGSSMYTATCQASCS
substance,measurement,value
Lixisenatide,affinity for the GLP-1 receptor relative to native GLP-1 and exenatide,four times greater affinity
